Experimental findings from PMC7700585, “Mechanistic Insights into the Allosteric Regulation of the Clr4 Protein Lysine Methyltransferase by Autoinhibition and Automethylation” (International Journal of Molecular Sciences, 2020) are described below.

For data set [1], the target named is Clr4 K455R/K472R (Schizosaccharomyces pombe, UniProt O60016, K455R/K472R). As to the kind of experiment: AdoMet dependence of Clr4 K455R/K472R activity (MALDI-TOF). The data set is classed as biochemical. The protocol: (§1) To investigate the Clr4 AdoMet dependency and the role that could be played by ARL automethylation in sensing AdoMet concentrations, steady-state kinetics were conducted at variable AdoMet concentrations. […] Afterwards, the methylation products were detected by MALDI-TOF mass spectrometry (Supplementary Figure S5). The Clr4 reaction rates were derived from the analysis of relative peak intensities of the different methylated histone peptides (Figure 6A,B).
Chain of Clr4 K455R/K472R (O60016 whole entry K455R/K472R): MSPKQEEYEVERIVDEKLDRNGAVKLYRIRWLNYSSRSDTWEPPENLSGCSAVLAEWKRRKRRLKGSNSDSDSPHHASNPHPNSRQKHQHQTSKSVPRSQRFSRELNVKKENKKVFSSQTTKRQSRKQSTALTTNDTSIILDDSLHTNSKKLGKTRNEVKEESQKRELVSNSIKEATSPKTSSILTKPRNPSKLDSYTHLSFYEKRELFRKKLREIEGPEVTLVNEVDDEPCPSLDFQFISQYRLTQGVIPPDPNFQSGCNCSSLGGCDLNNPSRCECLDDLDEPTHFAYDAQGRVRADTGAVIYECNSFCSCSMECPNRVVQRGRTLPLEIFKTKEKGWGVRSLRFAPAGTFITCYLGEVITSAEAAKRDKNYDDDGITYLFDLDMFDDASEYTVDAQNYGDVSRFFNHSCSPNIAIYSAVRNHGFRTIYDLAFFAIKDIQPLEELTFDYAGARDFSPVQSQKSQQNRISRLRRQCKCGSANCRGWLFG
(§2) Figure 6 AdoMet dependence of the activity of Clr4 WT and the K455R/K472R mutant. Fractions of methylated products observed with increasing AdoMet concentrations (2–50 µM) for Clr4 WT (A) or the automethylation-deficient K455R/K472R mutant (B). Data were obtained from the analysis of corresponding relative peak intensities measured by MALDI-TOF mass spectrometry in two to four independent experiments (see Supplementary Figure S5).
(§3) The reactions were halted by the addition of 0.1% trifluoroacetic acid (TFA). All the samples were cleaned using C18 tips (Agilent Technologies, Santa Clara, CA, USA). The eluted samples were spotted on an anchor chip plate and allowed to dry completely. Later, 1 μL of HCCA matrix (0.7 mg/mL α-cyano-4 hydroxycinnamic acid dissolved in 85% acetonitrile, 0.1% TFA, 1 mM ammonium dihydrogen phosphate) was added to dried sample and allowed to dry again. After that, the dried spots on the anchor plate were analyzed using an Autoflex Speed MALDI-TOF mass spectrometer (Bruker-Daltonics, Billerica, MA, USA). The mass spectra were collected using the Flex control software (Bruker-Daltonics). For calibration, the peptide calibration standard (Bruker-Daltonics) with peptides ranging from 700 to 3200 Da was used. The collected spectra were then analyzed with Flex analysis software (Bruker Daltonics). The relative methylation levels were determined by using the corresponding peak intensities of the substrate peptide in different methylation states.

Data set [2] deals with T1, Clr4 WT (Schizosaccharomyces pombe, UniProt O60016).
T1 construct: The plasmid encoding for SUMO- and His-tagged full-length Clr4 WT and different mutant variants were transformed into E. coli; SUMO; His; made in house; host or cells: E. coli BL21-CodonPlus (DE3)
T1 sequence (O60016 whole entry): as the sequence (O60016 whole entry K455R/K472R) above, with R455K, R472K counted along it
In words: AdoMet dependence of Clr4 WT activity (MALDI-TOF). Format: biochemical. The conditions noted are these: 30 °C, Hill model. The protocol: as §1, §2
The reactions were halted by the addition of 0.1% trifluoroacetic acid (TFA). […] After that, the dried spots on the anchor plate were analyzed using an Autoflex Speed MALDI-TOF mass spectrometer (Bruker-Daltonics, Billerica, MA, USA). […] The collected spectra were then analyzed with Flex analysis software (Bruker Daltonics). The relative methylation levels were determined by using the corresponding peak intensities of the substrate peptide in different methylation states.

Data set [3] has as its target T1, Clr4 WT. In words: MALDI-TOF detection of Clr4 WT methylation of histone peptides. The data set is classed as biochemical. Particulars: 4.5 µM peptide, 1 mM unlabeled AdoMet. As for the experimental part: as §3
The test system of data set [4] is unmodified H3K9 peptide (H3K9me0). As to the kind of experiment: Radioactive in vitro methyltransferase activity of Clr4 variants on H3K9 peptide. Particulars: for change in methyltransferase activity on the H3K9 peptide, in words: compared to WT (triple mutant: compared to A454R), low AdoMet (0.76 µM); for Methyltransferase activity (relative value): relative to WT, mean ± S.D., two to four independent experiments, 0.45 µM Clr4, 2.4 µM H3K9me0 (1–19) peptide, 0.76 µM [methyl-3H]-AdoMet, 50 mM Tris pH 8.8, 3 h, 30 °C. The data set is classed as biochemical. From the text:
(§4) After the methylation reactions, the samples were separated by gel electrophoresis and the transfer of the radioactively labeled methyl groups from the cofactor to the respective target lysine residues in Clr4 and in the H3K9 peptide was visualized by autoradiography, analyzed quantitatively and normalized to WT (Figure 2 and Supplementary Table S1).
(§5) Figure 2 Methyltransferase activity and automethylation of different engineered Clr4 variants compared to wild type (WT). […] The red asterisks indicate the Clr4 automethylation signal. […] The mean values are indicated by the bars and the individual data points as circles. […] The p-values of the differences in automethylation and methyltransferase activities between WT and mutants are listed in Supplementary Table S1.
(§6) The reactions were stopped by the addition of Tricine-SDS-PAGE loading buffer followed by heating to 95 °C for 5 min. […] The signals of the transferred radioactively labeled methyl groups were detected by autoradiography using a Hyperfilm^TM high-performance autoradiography film (Merck), which was placed on the dried gels at −80 °C in the dark. Films were developed with an Optimax Typ TR machine after different exposure times. For quantification, the signal intensities were measured with ImageJ (https://imagej.nih.gov/ij/) and analyzed with Microsoft Excel (Microsoft, Redmond, WA, USA).

Data set [5] relates to Clr4. In words: Radioactive in vitro automethylation of Clr4 WT and ARL variants (autoradiography). The data set is classed as biochemical, Schizosaccharomyces pombe. The conditions noted are these: for Automethylation level (relative value): relative to WT, mean ± S.D., two to four independent experiments, results with and without peptide combined, 0.45 µM Clr4, 2.4 µM H3K9me0 peptide, 0.76 µM [methyl-3H]-AdoMet, 50 mM Tris pH 8.8, 3 h, 30 °C; for change in automethylation, in words: compared to WT (triple mutant: compared to A454R); for decrease in automethylation compared to the WT enzyme (fold): autoradiography, normalized to WT.
Text: as §4, §5, §6

For data set [6], the target named is T2, Clr4 A454R (Schizosaccharomyces pombe, UniProt O60016, A454R).
T2 construct: The plasmid encoding for SUMO- and His-tagged full-length Clr4 WT and different mutant variants were transformed into E. coli; SUMO; His; made in house; host or cells: E. coli BL21-CodonPlus (DE3)
T2 sequence (O60016 whole entry A454R): as the sequence (O60016 whole entry K455R/K472R) above, with A454R, R455K, R472K counted along it
The data set is classed as biochemical.
Description: A reaction of WT enzyme incubated with 400 µM peptide was loaded on each gel as reference for the quantitative analysis.
The methylation reactions were performed using a peptide concentration range (25–400 µM) in methylation buffer (50 mM Tris pH 8.8, 10 mM MgCl2, 20 mM KCl, 1 mM DTT) supplemented with 0.76 µM radioactively labeled AdoMet (PerkinElmer) and 0.3 µM Clr4 WT or variants for 1 h at 30 °C.

For data set [7], the system named is C[S+](CC[C@H](N)C(=O)[O-])C[C@H]1O[C@@H](n2cnc3c(N)ncnc32)[C@H](O)[C@@H]1O. In words: AdoMet dependence of Clr4 K455R/K472R activity (MALDI-TOF). The data set is classed as biochemical, Schizosaccharomyces pombe. The conditions noted are these: other: Clr4 K455R/K472R 0.9 µM, H3K9me1 peptide 4.58 µM, AdoMet 0–50 µM, 50 mM Tris pH 8.8, 3 h, 30 °C, Michaelis–Menten model, mean ± SEM, two to four independent experiments. As for the experimental part:
as §1, §2, §3

The target in data set [8] is Clr4 wild type, SUMO- and His-tagged full-length (S. pombe, UniProt O60016 1-490). As to the kind of experiment: cell-based or functional assay.
Data set [9] addresses Clr4 A454R mutant, SUMO- and His-tagged full-length (S. pombe, UniProt O60016 1-490, A454R). In words: cell-based or functional assay.

With `C[S+](CC[C@H](N)C(=O)[O-])C[C@H]1O[C@@H](n2cnc3c(N)ncnc32)[C@H](O)[C@@H]1O` (stereo partly drawn) [AdoMet, S-adenosyl-L-methionine], the “n, Clr4 K455R/K472R” value in data set [1] (mutant data were fitted to the Michaelis–Menten model corresponding to an n-value of 1 (not a free parameter)) was 1. Also, the “rel. vmax (AdoMet), Clr4 K455R/K472R” value in data set [1] (relative to WT activity, Clr4 K455R/K472R 0.9 µM, H3K9me1 peptide 4.58 µM, AdoMet 0–50 µM, pH 8.8, 3 h, 30 °C, Michaelis–Menten model, mean ± SEM) came to 0.71 ± 0.08. Also, the “N (Hill coefficient), Clr4 WT” value in [2] (Clr4 WT 0.9 µM, H3K9me1 peptide 4.58 µM, AdoMet 0–50 µM, pH 8.8, 3 h, mean ± SEM) came out at 1.87 ± 0.19.
Turning to `C[C@H](N)C(=O)N[C@@H](CCCNC(=N)N)C(=O)N[C@H](C(=O)N[C@@H](CCCCN)C(=O)N[C@@H](CCC(N)=O)C(=O)N[C@H](C(=O)N[C@@H](C)C(=O)N[C@@H](CCCNC(=N)N)C(=O)N[C@@H](CCCCN)C(=O)N[C@@H](CO)C(=O)N[C@H](C(=O)NCC(=O)NCC(=O)N[C@@H](CCCCN)C(=O)N[C@@H](C)C(=O)N1CCC[C@H]1C(=O)N[C@@H](CCCNC(=N)N)C(=O)N[C@@H](CCCCN)C(=O)N[C@@H](CCC(N)=O)C(N)=O)[C@@H](C)O)[C@@H](C)O)[C@@H](C)O` [H3K9me0], in data set [3], the “H3K9me1 product fraction after overnight incubation” value stood at 12%, the “H3K9me2 product fraction after overnight incubation” value came to 42% and the “total methylation after overnight incubation” value was 54%.
For “A454R: Clr4 variant, A454 in the ARL was mutated to R”, in data set [4], the “change in methyltransferase activity on the H3K9 peptide, in words” value (shortened to “change in methyltransferase activity”) is listed as “approximately two-fold higher methyltransferase activity” and the “Methyltransferase activity (relative value)” value was determined as 1.9 ± 0.33. The “stronger automethylation compared to Clr4 WT (fold)” value in data set [5] (p-value = 0.012) was “about 3.4 fold”. Moreover, the “Automethylation level (relative value)” value in data set [5] came out at 3.4 ± 1.05. Further, the “activity at low concentrations of both histone peptides” value in [6] (A454R compared to WT, H3K9me0 and H3K9me1, Figure S4) is reported as “higher activity compared to the WT”. For the same molecule, in data set [6] (histone peptides, AdoMet 0.76 µM), the “Vmax difference A454R vs WT” value is recorded as “minor”.
With “Clr4 K455R/K472R (Schizosaccharomyces pombe 972h-; K455R/K472R)”, the Michaelis constant (Km) (as a rule, the concentration of substrate that gives half-maximal velocity) in [7] amounted to 13.6 ± 1.0 µM.
For the molecule “Clr4 WT: S. pombe H3K9 protein lysine methyltransferase Clr4, wild type”, in data set [2] (AdoMet 2–50 µM, H3K9me1 peptide, 3 h), the “reaction rate response towards increasing AdoMet concentration, Clr4 WT” value is given as “sigmoidal response”.
“D456S/F457T: Clr4 variant, D456 and F457 were mutated to S and T”: in [4], the “change in methyltransferase activity” value was “no significant change in automethylation and methyltransferase activity”; the “Methyltransferase activity (relative value)” value is 1.2 ± 0.14. In addition, in data set [5], the “change in automethylation, in words” value is given as “no significant change in automethylation” and the “Automethylation level (relative value)” value is reported as 1.2 ± 0.33.
Take “K455M: Clr4 variant in which the target lysine in the ARL, K455, was mutated to M”: the “reduction in H3K9 peptide methyltransferase activity” value in [4] (less active than WT, p-value = 0.0004) is given as 30%. Moreover, the “Methyltransferase activity (relative value)” value in data set [4] was found to be 0.7 ± 0.09. In addition, in data set [5], the “change in automethylation, in words” value is given as “strong reduction in automethylation (about four-fold” and the “Automethylation level (relative value)” value turned out to be 0.23 ± 0.05.
For the molecule “K455R/K472R: ARL automethylation-deficient Clr4 mutant”, in data set [4], the “change in methyltransferase activity” value is recorded as “not accompanied by a corresponding reduction in activity” and the “Methyltransferase activity (relative value)” value is given as 0.91 ± 0.08. Besides, in data set [5], the “decrease in automethylation compared to the WT enzyme (fold)” value is recorded as about 2.2 fold and the “Automethylation level (relative value)” value turned out to be 0.46 ± 0.15. In addition, the “reaction rate response towards increasing AdoMet concentration, K455R/K472R” value in data set [1] (AdoMet 2–50 µM, H3K9me1 peptide, 3 h, 30 °C, Michaelis–Menten model) is “regular hyperbolic shape”.
Consider “K455R: automethylation-deficient Clr4 mutant”, for which, in [4], the “change in methyltransferase activity” value is listed as “not accompanied by a corresponding reduction in activity” and the “Methyltransferase activity (relative value)” value stood at 1.1 ± 0.008. In data set [5], the “decrease in automethylation compared to the WT enzyme (fold)” value was “about 1.4 fold” and the “Automethylation level (relative value)” value is 0.7 ± 0.08.
With ARTKQTARKSTGGKAPRK (peptide, UniProt P68431 2-19, looked up, monomethyl-lysine at 9; biotin (end not stated)) [H3K9me1-biotin (1–18) peptide], the figures for the “Km of peptide methylation (steady-state kinetics, Michaelis–Menten fit, 0.76 µM AdoMet)” value in data set [8] and in data set [9] were 16.4 µM and 5.5 µM, respectively.

B1: A454R/D456S/F457T: Clr4 triple mutant, all of the exchanges combined in one mutant (protein, UniProt O60016 1-490, looked up, variant A454R D456S F457T)
Histone-lysine …: MSPKQEEYEVERIVDEKLDRNGAVKLYRIRWLNYSSRSDTWEPPENLSGCSAVLAEWKRRKRRLKGSNSDSDSPHHASNPHPNSRQKHQHQTSKSVPRSQRFSRELNVKKENKKVFSSQTTKRQSRKQSTALTTNDTSIILDDSLHTNSKKLGKTRNEVKEESQKRELVSNSIKEATSPKTSSILTKPRNPSKLDSYTHLSFYEKRELFRKKLREIEGPEVTLVNEVDDEPCPSLDFQFISQYRLTQGVIPPDPNFQSGCNCSSLGGCDLNNPSRCECLDDLDEPTHFAYDAQGRVRADTGAVIYECNSFCSCSMECPNRVVQRGRTLPLEIFKTKEKGWGVRSLRFAPAGTFITCYLGEVITSAEAAKRDKNYDDDGITYLFDLDMFDDASEYTVDAQNYGDVSRFFNHSCSPNIAIYSAVRNHGFRTIYDLAFFAIKDIQPLEELTFDYAGRKSTSPVQSQKSQQNRISKLRRQCKCGSANCRGWLFG
For B1, in data set [4], the “change in methyltransferase activity” value is on record as “no significant difference from the A454R single mutant” and the “Methyltransferase activity (relative value)” value came to 1.7 ± 0.02. Besides, in [5], the “change in automethylation, in words” value was “no significant difference from the A454R single mutant” and the “Automethylation level (relative value)” value is on record as 2.7 ± 0.66.
